Assays:
PKC isoforms = assay: Immunoblot of PKC isoform partitioning and down-regulation in cardiomyocytes; assay type: cell-based, rat; conditions: 400 ng/ml, early time points 30 min-2 hr
Procedure: rPMT selectively activates nPKC isoforms. […] Soluble extracts were prepared and separated by SDS-PAGE followed by immunodetection of total PKC isoform abundance with antibodies that are specific for the individual PKC isoforms (Panel A), or phosphorylated forms of PKC (largely PKCε) with a pan-phospho-PKC antibody (Panels B and C), as described in Methods below. GF109203 was included at 5 μM 30 min prior to stimulation as indicated.
Cells were maintained in culture in the presence of 10% FCS for 96 hr and then switched to serum-free medium for 24 hr prior to the addition of agonists as indicated. For PKC, extracts were prepared and subjected to SDS-PAGE to resolve individual isoforms according to methods described previously (14).
Specific immunoreactivity for individual PKC isoforms was quantified according to methods described previously. […] Bands were detected by enhanced chemiluminescence and blots were quantified by laser scanning densitometry.

ERK1/2 = assay: Phospho-ERK1/2 Western blot in cardiomyocytes; assay type: cell-based, rat
Procedure: rPMT promotes the activation of ERK1/2, JNK and p38-MAPK cascades. Incubations were for 24 hr in the presence of the indicated concentrations of rPMT. PMA (100 nM, 5 min) and sorbitol ([…], 5 min) were included as positive controls. Cell lysates were subjected to SDS-PAGE followed by Western blotting as described in Methods below. Phosphorylated forms of ERK1/2 (A), p38 MAP kinase (B) or JNK (C) were detected by specific anti-phospho-ERK1/2, -p38 MAP kinase or -JNK antibodies, respectively. Blots were stripped and subjected to immunoblot analysis with total ERK1/2 or p38 MAP kinase to normalize for minor variations in protein loading (Panels A and B). Top: representative autoradiograms (with each lane from a single gel exposed for the same duration). Bottom: quantification of each series of experiments (n=3).
rPMT transactivation of the EGF receptor in cardiac fibroblasts, but not cardiomyocytes. Neonatal rat cardiomyocytes (Panel A) and cardiac fibroblasts (Panel B) were treated with rPMT (400 ng/ml) for 24 hr or EGF (50 ng/ml) for 5 min without or with AG1478 (2 μM, starting 30 min prior to stimulation). Cell lysates were subjected to SDS-PAGE followed by Western blotting with the anti-phospho-ERK1/2 antibody. Data are from a representative gel, with similar results obtained in 3 separate experiments.
(§1) Specific immunoreactivity for individual PKC isoforms was quantified according to methods described previously. For assays of MAPKs and AKT, cells were exposed to test agents as indicated in individual experimental protocols, washed three times with ice-cold calcium/magnesium-free Dulbecco's PBS (pH 7.1), scraped into ice-cold extraction buffer [20 mM β-glycerophosphate pH 7.5, 20 mM sodium fluoride, 2 mM EDTA, 0.2 mM sodium vanadate, 10 μg/ml aprotinin, 25 μg/ml leupeptin, 50 μg/ml PMSF, and 0.3% (v/v) β-mercaptoethanol], lysed by sonication, and centrifuged at 10,000 g for 10 min at 4° C. The supernatant was diluted in SDS-PAGE sample buffer, boiled for 5 min, and stored at −70° C. Western blot analysis was performed with antibodies that are selective for the phosphorylated (activated) forms of ERK1/2, p38-MAPK, JNK, AKT, and pan-PKC according to manufacturer's instructions. For each panel in each Figure, the results are from a single gel exposed for a uniform duration. Bands were detected by enhanced chemiluminescence and blots were quantified by laser scanning densitometry.

PKC-ε = target: T1, PKC-ε (Rattus norvegicus, UniProt P09216); assay: Western blot with anti-phospho-PKC antibody in cardiomyocytes; assay type: cell-based; conditions: 400 ng/ml, 24 hr
T1 construct: endogenous in cells; host or cells: cultured neonatal rat ventricular cardiomyocytes
T1 sequence (P09216 1-737): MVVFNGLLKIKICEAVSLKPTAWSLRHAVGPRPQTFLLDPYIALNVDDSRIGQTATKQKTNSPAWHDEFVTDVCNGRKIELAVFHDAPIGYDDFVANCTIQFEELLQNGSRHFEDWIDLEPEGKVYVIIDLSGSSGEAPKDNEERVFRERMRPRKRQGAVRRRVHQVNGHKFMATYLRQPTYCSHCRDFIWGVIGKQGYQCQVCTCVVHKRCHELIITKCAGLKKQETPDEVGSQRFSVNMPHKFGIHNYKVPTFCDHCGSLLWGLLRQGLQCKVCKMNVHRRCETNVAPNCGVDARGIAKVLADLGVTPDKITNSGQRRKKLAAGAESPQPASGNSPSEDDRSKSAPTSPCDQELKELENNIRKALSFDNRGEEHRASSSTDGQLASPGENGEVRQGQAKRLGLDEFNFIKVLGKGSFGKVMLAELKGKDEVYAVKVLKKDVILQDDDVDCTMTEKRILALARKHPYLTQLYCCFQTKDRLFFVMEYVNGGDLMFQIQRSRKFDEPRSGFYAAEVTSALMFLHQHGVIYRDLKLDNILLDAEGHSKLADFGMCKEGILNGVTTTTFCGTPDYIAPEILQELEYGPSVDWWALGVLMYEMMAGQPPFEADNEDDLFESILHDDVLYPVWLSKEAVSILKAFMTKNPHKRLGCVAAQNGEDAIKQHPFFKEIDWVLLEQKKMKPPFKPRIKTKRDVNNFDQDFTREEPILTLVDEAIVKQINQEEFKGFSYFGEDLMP
Procedure: rPMT selectively activates nPKC isoforms. Cardiomyocyte cultures were incubated in culture medium without or with NE (10 μM), rPMT (400 ng/ml) or PMA (100 nM) for 24 hr (Panels A and C) or 5 min (Panel B). Soluble extracts were prepared and separated by SDS-PAGE followed by immunodetection of total PKC isoform abundance with antibodies that are specific for the individual PKC isoforms (Panel A), or phosphorylated forms of PKC (largely PKCε) with a pan-phospho-PKC antibody (Panels B and C), as described in Methods below. GF109203 was included at 5 μM 30 min prior to stimulation as indicated.
as §1, with “Western blot analysis was performed with antibodies that are selective for the phosphorylated (activated) forms of ERK1/2, p38-MAPK, JNK, AKT, and pan-PKC according to manufacturer's instructions. For each panel in each Figure, the results are from a single gel exposed for a uniform duration.” left out

B1: rPMT: recombinant Pasteurella multocida toxin, a Gαq agonist used as pharmacological probe (protein, UniProt P17452 1-1285, looked up)
Dermonecrotic toxin: MKTKHFFNSDFTVKGKSADEIFRRLCTDHPDKQLNNVKWKEVFINRFGQMMLDTPNPRKIVEKIINEGLEKQGLKNIDPETTYFNIFSSSDSSDGNVFHYNSLSESYRVTDACLMNIFVERYFDDWDLLNSLASNGIYSVGKEGAYYPDHDYGPEYNPVWGPNEQIYHSRVIADILYARSVWDEFKKYFMEYWQKYAQLYTEMLSDTFLAMAIQQYTRQTLTDEGFLMVCNTYYGNKEEVQITLLDIYGYPSTDIICIEQKGLPTPKVILYIPGGTQPFVEFLNTDDLKQWIAWHLKDNKHMVAFRKHFSLKQRQEGETFTGIDKALQYIAEESPEWPANKYILYNPTHLETENLFNIMMKRTEQRMLEDSDVQIRSNSEATRDYALSLLETFISQLSAIDMLVPAVGIPINFALSATALGLSSDIVVNGDSYEKRKYGIGSLVQSALFTGINLIPVISETAEILSSFSRTEEDIPAFFTEEQALAQRFEIVEEELHSISPDDPPREITDENLHKIRLVRLNNENQPLVVLRRLGGNKFIRIEPITFQEIKGSLVSEVINPVTNKTYYVSNAKLLGGSPYSPFRIGLEGVWTPEVLKARASVIGKPIGESYKRILAKLQRIHNSNILDERQGLMHELMELIDLYEESQPSSERLNAFRELRTQLEKALYLPEMEALKKQILQIPNKGSGAARFLLRTAMNEMAGKTSESTADLIRFALQDTVISAPFRGYAGAIPEAIDFPVKYVIEDISVFDKIQTNYWELPAYESWNEGSNSALLPGLLRESQSKGMLSKCRIIENSLYIGHSYEEMFYSISPYSNQVGGPYELYPFTFFSMLQEVQGDLGFEQAFATRNFFNTLVSDRLSLMENTMLLTESFDYTPWDAIYGDINYDEQFAAMSINERIEKCMNTYRGVAFQNSSKSIDFFLNNLTTFIDNGLTEIAISDLPYDIVQQEISQFLQGSNEWKTLDAMLFNLDKGDINGAFRKLLQSAKDNNIKFRAIGHSDNSVPPFNNPYKSLYYKGNIIAEAIEKLDREGQKFVVFADSSLLNSTPGTGRPMPGLVQYLKIPATVVDSDGAWQFLPDVASSRVPIEVTELENWQVLTPPQGKILGLKQFKLTAGFPTEQSRLPLLENSVSEDLREELMQKIDAIKNDVKMNSLVCMEAGSCDSVSPKVAARLKDMGLEAGMGASITWWRREGGMEFSHQMHTTASFKFAGKEFAVDASHLQFVHDQLDTTILILPVDDWALEIAQRNRAINPFVEYVSKTGNMLALFMPPLFTKPRLTRAL
PKC isoforms
  partitioning of PKC isoforms between soluble and particulate fractions: does not detectably alter
ERK1/2
  expression of total ERK1/2 protein: does not significantly alter
ERK1/2; 24 hr, indicated concentrations
  signaling through the ERK1/2 cascade (phosphorylation of terminal kinase): dose-dependent increases
ERK1/2; comparable to acute stimulation with PMA
  magnitude of ERK1/2 activation: quite robust
ERK1/2; increased progressively for 24 hr
  time at which ERK1/2 activation is detectable: 1 h
PKC-ε
  PKC-ε phosphorylation: enhanced

Reference: patent US20030134774A1, “Methods for inhibiting cardiac disorders” (priority 2001, published 2003)
